Reference: article PMC10397247

How the values were obtained:
O7-bA = target: T1, O7-bA; assay: two-hybrid library CCNG1;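 further: natural log of median RNA to DNA barcode read ratio; higher means stronger binding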
T1 chain: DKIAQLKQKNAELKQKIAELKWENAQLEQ

O8-bA = target: T2, O8-bA; assay: two-hybrid library CCNG1;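 further: natural log of median RNA to DNA barcode read ratio; higher means stronger binding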
T2 chain: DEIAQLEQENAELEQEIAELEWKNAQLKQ

O9-bA = target: T3, O9-bA; assay: two-hybrid library CCNG1;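 further: natural log of median RNA to DNA barcode read ratio; higher means stronger binding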
T3 chain: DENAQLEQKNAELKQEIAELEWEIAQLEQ

AP8-AA = target: T4, AP8-AA; assay: two-hybrid library CCmax;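 further: natural log of median RNA to DNA barcode read ratio; higher means stronger binding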
T4 chain: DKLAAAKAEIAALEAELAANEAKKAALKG

GCN2_T = assay: two-hybrid library CCmax
P1-AA = target: T5, P1-AA; assay: two-hybrid library CCmax; conditions: mean of both orientations
T5 chain: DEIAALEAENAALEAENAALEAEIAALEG

P10-AA = target: T6, P10-AA; assay: two-hybrid library CCmax; conditions: mean of both orientations
T6 chain: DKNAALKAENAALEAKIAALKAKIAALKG

P11-AA = target: T7, P11-AA; assay: two-hybrid library CCmax; conditions: mean of both orientations
T7 chain: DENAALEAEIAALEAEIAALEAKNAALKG

P12-AA = target: T8, P12-AA; assay: two-hybrid library CCmax; conditions: mean of both orientations
T8 chain: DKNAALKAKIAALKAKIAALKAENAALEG

P2-AA = target: T9, P2-AA; assay: two-hybrid library CCmax; conditions: mean of both orientations
T9 chain: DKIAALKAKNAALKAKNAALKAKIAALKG

P3-AA = target: T10, P3-AA; assay: two-hybrid library CCmax; conditions: mean of both orientations
T10 chain: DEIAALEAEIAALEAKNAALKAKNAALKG

P4-AA = target: T11, P4-AA; assay: two-hybrid library CCmax; conditions: mean of both orientations
T11 chain: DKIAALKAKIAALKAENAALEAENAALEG

P7-AA = target: T12, P7-AA; assay: two-hybrid library CCmax; conditions: mean of both orientations
T12 chain: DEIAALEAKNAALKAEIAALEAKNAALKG

P8-AA = target: T13, P8-AA; assay: two-hybrid library CCmax; conditions: mean of both orientations
T13 chain: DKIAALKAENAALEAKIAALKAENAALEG

P9-AA = target: T14, P9-AA; assay: two-hybrid library CCmax; conditions: mean of both orientations
T14 chain: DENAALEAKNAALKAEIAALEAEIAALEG

4H3497-bA = target: T15, 4H3497-bA; assay: two-hybrid library CCNG1
T15 chain: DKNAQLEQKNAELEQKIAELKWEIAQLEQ

4H3613-bA = target: T16, 4H3613-bA; assay: two-hybrid library CCNG1
T16 chain: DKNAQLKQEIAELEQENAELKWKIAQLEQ

4H3628-bA = target: T17, 4H3628-bA; assay: two-hybrid library CCNG1
T17 chain: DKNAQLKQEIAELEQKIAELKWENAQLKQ

4H3926-bA = target: T18, 4H3926-bA; assay: two-hybrid library CCNG1
T18 chain: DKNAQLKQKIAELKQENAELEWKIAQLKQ

4H591-bA = target: T19, 4H591-bA; assay: two-hybrid library CCNG1
T19 chain: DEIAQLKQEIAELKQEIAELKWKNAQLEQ

4H626-bA = target: T20, 4H626-bA; assay: two-hybrid library CCNG1
T20 chain: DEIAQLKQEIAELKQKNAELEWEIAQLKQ

4H906-bA = target: T21, 4H906-bA; assay: two-hybrid library CCNG1
T21 chain: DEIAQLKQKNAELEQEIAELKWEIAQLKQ

DKIAQLKQKNAELKQKIAELKWENAQLEQ [O7-bA]
interaction score (O7-bA): -1.12 | interaction score (O8-bA): 2.08 | interaction score (O9-bA): -0.962

DKLAAAKAEIAALEAELAANEAKKAALKG [AP8-AA]
interaction score (AP8-AA): -1.3 | interaction score (GCN2_T): -1.88 | interaction score (P1-AA): -1.78 | interaction score (P10-AA): -0.57 | interaction score (P11-AA): -1.41 | interaction score (P12-AA): -0.366 | interaction score (P2-AA): -1.71 | interaction score (P3-AA): -1.35 | interaction score (P4-AA): -1.17 | interaction score (P7-AA): -1.21 | interaction score (P8-AA): -1.39 | interaction score (P9-AA): -0.718

DKNAQLEQKNAELEQKIAELKWEIAQLEQ [4H3497-bA]
interaction score (4H3497-bA): -0.278 | interaction score (4H3613-bA): -1.15 | interaction score (4H3628-bA): -0.547 | interaction score (4H3926-bA): -1.24 | interaction score (4H591-bA): -1.08 | interaction score (4H626-bA): -1.45 | interaction score (4H906-bA): -1.2
